Experimental data reported in the DeepSol protein solubility set.

Experiment: soluble on expression in E. coli; label from the status in PepcDB or PDB records

Sequence	soluble on expression in E. coli
MNKGRIIQVMGPVVDIQFESGQLPDIYNAITIERPQGGTLTVEAAVHLGDNVVRCVAMASTDGLVRGLEAVDTGAPISVPVGKATLGRVFNVLGEPIDEQGEVNAEERHPIHRPAPEFEELSTADEILETGIKVIDLLAPYAKGGKIGLFGGAGVGKTVLIQELINNVAQEHGGLSVFAGVGERTREGNDLYHEMKDSGVISKTSMVFGQMNEPPGARLRVALTGLTMAEYFRDREGQDVLLFIDNIFRFTQAGSEVSALLGRMPSAVGYQPTLATEMGQLQERITSTKKGSITSIQAIYVPADDYTDPAPATTFAHLDATTNLERKLAEMGIYPAVDPLASTSRILSPAVVGEEHYRVARGVQQVLQRYNDLQDIIAILGMDELSDEDKLIVARARKIQRFLSQPFHVAEQFTGMPGKYVPVKETVRGFKEILEGKHDNLPEEAFYMVGTIDEAVEKAKKL	soluble
MNKKELIDRVAKKAGAKKKDVKLILDTILETITEALAKGEKVQIVGFGSFEVRKAAARKGVNPQTRKPITIPERKVPKFKPGKALKEKVK	soluble
MNKKILVVDDEESIVTLLQYNLERSGYDVITASDGEEALKKAETEKPDLIVLDVMLPKLDGIEVCKQLRQQKLMFPILMLTAKDEEFDKVLGLELGADDYMTKPFSPREVNARVKAILRRSEIRAPSSEMKNDEMEGQIVIGDLKILPDHYEAYFKESQLELTPKEFELLLYLGRHKGRVLTRDLLLSAVWNYDFAGDTRIVDVHISHLRDKIENNTKKPIYIKTIRGLGYKLEEPKMNE	soluble
MNKKIYVGMTADIMHPGLIHIIHEATKYGDVIVGLLTDKAIAEHKRLPYLTYDQRKEVVENIKGVCEVVPQEDWSYVPNLEKLKPDYIIHGDDWKTGPLREVREQVFEVMNAQGGKVIEIPYTRGINSSSLDKDIKAIGTTPDVRLKSLRRLIQAKPVVRILEAHDGLCGLIIENLEVQKGDKREVFDGMWSSSLTDSTSKGKPDIEAVDLTTRLQDLNNILECTTKPIIFDGDTGGKIEHFVFTVRTLERHGISAVIIEDKVGLKKNSLFGTDAIQTQDSIEGFCDKIRAGKNAQVTGDFMIIARIESLIAGKPMSDALERAYAYVQAGADGIMIHSKDKSGEDIREFCRTFRKEYAHVPIVVVPTTYDHVHESELHEWGANVVIYANHLLRAAYPAMMNVARTILENERAEEVRPLCMPIKEILELIPGTK	not soluble
MNKKSSSMVNMPAPREPINQKIDTNNALVLNHNAIYEQRLAEITQSNTCDKAIVTVNPYGTAPLSLYLGVWMDEAAALEINVVDSEATTEEVRYQYDVHPGANLIPVCGMVSAVNNQITLRLASQIVGQYTVMTDALPPTDSANVSLGFPIISVSCPAQQASLMEEGLYFSTYFDRYNLAFDHNGIVRWYVSQEIPSYNFVRMDNGHFLATSQGINHCLNMYEFDIMGRVYTVYLLDNEFHHSILPIENNLAIAPSEYSNGRPDGYSTGKDGVSIINLSTGLEVAYYDMLYVMDYSRSPRPSGSAPGQDVSMDDWLHINQSYINEPNNLLICSGRHQSAIFGVNVDSGELRFIMANHEDWSDEFKQYLLTPVDDDGVPLYDLTSPGGIDAADKNFWTWGQHNIVEIPNDEPGILEFMVFDNGNYRSREDAKSLLPLDNFSRVVQFKINLNTMTVTRPYEYGKTEVGNRGYSSFVSAKHLLTNGHLVIHFGATTVDEFEHTITAQPGSSDLVDPDEGQQALGRLVLQEINKETKEVLFEAMVTSGYFKNEETNGTNYRYDISAFRVYKMPLFA	not soluble
MNKLNICIDIDGTITSPYHFLPYLNDIFNKNITEAECITHNWEELYGSGIRDVYAEFNNKYIHSYDEAKIVEGATEVISTLSKGHNLSFVTARHECLTDVTKNWLSRQGFSDIDVYLLGSDYKVEKARELSCDIFIEDNPLNSVQLADDGVKVILLDTNYNKDVKHQNIVRVSNWIDIEKIIKQGI	not soluble
MNKRIVICADGTWNRPEKDLKVDFPTNVLRLARAISPIAADGKPQQVFYDWGVGSYYDEVIGGATGRGLHKNIMDGYRYIVQNYSPGDEIYLFGFSRGAYTVRCLCGLINNCGILKRPEARLIQQAFDHYKKSSAPFAPSGDKSVEFRHEHCHESREIKFVGVWDTVGAMGIPISFLGLFEDKDEFYDTKIGRNVRVARHALAIDEHRSDFEPTIWQLRDNMDMQQVWFAGAHSNVGGSYLPDKDGSLLSDNALAWMIAEAERFNLSLEPHLTAGLEHHHHHH	not soluble
MNKTELIKAIAQDTGLTQVSVSKMLASFEKIITETVAKGDKVQLTGFLNIKPVARQARKGFNPQTQEALEIAPSVGVSVKPGESLKKAAEGLKYEDFAK	soluble
MNKTPRVGFVSLGCPKAASDSEQILTRLRAEGYEIAPSYDGADLVVVNTCGFIDSAVEESLDAIGEALNENGKVIVTGCLGAKGDVVRDVHPSVLAVTGPHATEEVMSAVHTHLPKPHDPFVDLVPDIGVRLTPKHYAYLKISEGCNHRCTFCIIPSMRGDLESRPIHDVLREAESLAKAGVKEILVISQDTSAYGVDTKYKLGFHNGRPVKTRMTELCEELGRHGIWVRLHYVYPYPHVDEVIPLMRDGKILPYLDIPFQHASQKVLKLMKRPANSDNVLARIKKWREICPELVIRSTFIVGFPGETEEDFEELLAFIREAELDRVGCFTYSPVEGATANELPNPVPEDVKEARKERFMAVQAEISARRLERRVGQTLQVLVDEIDDEGTAVCRSYADAPEIDGLVFVEDAAGMQPGEFYQVEIVDCSEHDLWGERRLEHHHHHH	soluble
MNKVKILAIVGSLRKGSYNRQLALAAKEIVKDTADFTLLDYQDVPLMNEDIEYPAPDAVKRVREEVKAADGIWFFTPEYNHFFPGVLKNLIDWLSRPVSENEPQVLAGKPAAISGISLGMSGTAIAQDHLVTLISFLDMKVMNVPRVTVPNAWQYVDDQGKLIMESIYPHLEKQAKAFVNFIQAKCL	not soluble
MNLDDKSLFLDAMEDVQPLKRATDVHWHPTRNQRAPQRIDTLQLDNFLTTGFLDIIPLSQPLEFRREGLQHGVLDKLRSGKYPQQASLNLLRQPVEECRKMVFSFIQQALADGLRNVLIIHGKGRDDKSHANIVRSYVARWLTEFDDVQAYCTALPHHGGSGACYVALRKTAQAKQENWERHAKRSR	soluble
MNLFYNPKYVGDVAFLQIEPVEGELNYNKKGNVVEITNEGNVVGYNIFEISKDITIEEKGHIKLTDELVNVFQKRISEAGFDYKLNADLSPKFVVGYVETKDKHPDADKLSVLNVNVGNDTLQIVCGAPNVEAGQKVVVAKVGAVMPSGMVIKDAELRGVASSGMICSMKELNLPNAPEEKGIMVLNDSYEIGQAFFELEHHHHHH	soluble
MNLKAMDAILEDCCDIVCSDYLPSAMIKSMCIVAERINNLNKAVSLFTSNPAKAVGIYDERGSIKENKKADLVLVDIDSEYPKVVNTIVNGKTVYKRELEHHHHHH	not soluble
MNLKDKILGVAKELFIKNGYNATTTGEIVKLSESSKGNLYYHFKTKENLFLEILNIEESKWQEQWKKEQIKCKTNREKFYLYNELSLTTEYYYPLQNAIIEFYTEYYKTNSINEKMNKLENKYIDAYHVIFKEGNLNGEWSINDVNAVSKIAANAVNGIVTFTHEQNINERIKLMNKFSQIFLNGLSKHHHHHH	soluble
MNLLFQSYLDNVGVQIVRQMRSGERFLKIWSQTVEEIVSYVTVNF	soluble
MNLPKKVRLVEVGPRDGLQNEKQPIEVADKIRLVDDLSAAGLDYIEVGSFVSPKWVPQMAGSAEVFAGIRQRPGVTYAALAPNLKGFEAALESGVKEVAVFAAASEAFSQRNINCSIKDSLERFVPVLEAARQHQVRVRGYISCVLGCPYDGDVDPRQVAWVARELQQMGCYEVSLGDTIGVGTAGATRRLIEAVASEVPRERLAGHFHDTYGQALANIYASLLEGIAVFDSSVAGLGGCPYAKGATGNVASEDVLYLLNGLEIHTGVDMHALVDAGQRICAVLGKSNGSRAAKALLAKA	soluble
MNLRSVFTVEQQRILQRYYENGMTNQSKNCFQLILQCAQETKLDFSVVRTWVGNKRRKMSSKNSESGTATTGTSLSAPDITVRNVVNIARPSSQQSSWTSANNDVIVTGIYSPASSSSRQGTNKHTDTQITEAHKIPIQKTATKNDTEFQLHIPVQRQVAHCKNASLLLGEKTIILSRQTSVLNAGNSVFNHAKKNYGNSSVQASEMTVPQKPSVCHRPCKIEPVGIQRSYKPEHTGPALHNLCGQKPTIRDPYCRTQNLEIREVFSLAVSDYPQRILGGNAPQKPSSAEGNCLSIAMETGDAEDEYAREEELASMRAQIPSYSRFYESGSSLRAENQSTTLPGPGRNMPNSQMVNIRDMSDNVLYQNRNYHLTPRTSLHTASSTMYSNTNPLRSNFSPHFASSNQLRLSQNQNNYQISGNLTVPWITGCSRKRALQDRTQFSDRDLATLKKYWDNGMTSLGSVCREKIEAVATELNVDCEIVRTWIGNRRRKYRLMGIEVPPPRGGPADFSEQPESGSLSALTPGEEAGPEVGEDNDRNDEVSICLSEGSSQEEPNEVVPNDARAHKEEDHHAVTTDNVKIEIIDDEESDMISNSEVEQVNSFLDYKNEEVKFIENELEIQKQKYFKLQTFVRSLILAMKADDKEQQQALLSDLPPELEEMDFNHASLEPDDTSFSVSSLSEKNVSESL	soluble
MNLVGIVGTNSERSTNRKLLRFMAEHFAPQAAIEVLEIKDLPAFDEPENKTAPAAVTAFSKKIAAADGVIIATPEYNHTIPAPLGSALEWIAYTSRVLVNKPVMIVGCSLGALGTSRAQAHLRQILDAPELKARVMPGTEFFLGHSEHVLDDDFNLNNPEKVAELEEHFTEFQDFVIVTNQIVKQADTDRKKAFVWEAGELEHHHHHH	soluble
MNNLIKAINELKKEKNAIILGHYYQKGEIQDIADYVGDSLALAQLAAKTEADIIVMCGVHFMGETAKVLCPDKKVLVPDMEAGCSLADSCPADQFAQFVKEHPGHTVISYVNTTAAVKAVTDVVVTSTNARQIVESFPKDEKIIFGPDRNLGNYINSVTNRNMLLWDGACHVHEQFSVEKIVELKTQHPEALVLAHPECKSTVLKLADVVGSTAALLKYAVNHPENTYIVATESGILHEMQKKCPQTTFIPAPPNDSTCGCNECSFMRLNTLEKLYECLKNESPEITVDPEIAEKAVRPIQRMLEISAKLGL	not soluble
MNNNHYTYRVLWSQEDEEYVGLCAEFPSLSWLDAQAEKALKGIMDLVSEVVEDMQHNGEEVPVPLSHGKYSGKFQLRIPPELHRKLAIQAAENGVSLNRYISSKL	not soluble
MNNSAEYFIKSLNMTAHPEGGYFKESFISPSKLAPNTLHINEERLLWTSIYFLLRTGEVSNFHRLKSDEMWYFHAGESLTIYMISPNGELIEKQLGLNIEKGETPQVLVPKDYIFGSAMNNEGFSLVGCMVAPGFDFKDFELFEREDLLEKYPKYKEVIEKLTRLEHHHHHH	not soluble
MNNYTIKDITRASGGFAMLAVDQREAMRLMFAAAGAKTPVADSVLTDFKVNAAKILSPYASAVLLDQQFCYRQAVEQNAVAKSCAMIVAADDFIPGNGIPVDNVVLDKKINAQAVKRDGAKALKLLVLWRSDEDAQQRLNMVKEFNELCHSNGLLSIIEPVVRPPRCGDKFDREQAIIDAAKELGDSGADLYKVEMPLYGKGARSDLLTASQRLNGHINMPWVILSSGVDEKLFPRAVRVAMEAGASGFLAGRAVWSSVIGLPDTELMLRDVSAPKLQRLGEIVDEMMAKRR	soluble
MNPLERKVKQEAEEDGYSSFDEFPAGAIRIPYEELMAKVRAKKAEAEAAQDLVNENSFDQFVAAPPAPPVQKPAVEPSPSCSPETVAVQKFVTEFMQAAGGSRELRIIKDSQETKIVWKTSPAKPKAPPVEDDPTDPTDSQVSTVSSIIPVSSPRGKRRIVVSSDKDSDGDETPTEDNVNNDDQDVTPKKNRKPPVEVVTPSPAKRLRGLNLRSAHSSSDSESDFQDTQCEDSQDSDYFPDTQEQRDRPADFRIPKNAAYDPLDLSYN	not soluble
